Experiments:
[1] = biological target: T1, EYFLQ (5-mer on peptide array)
T1 chain: EYFLQ

[2] = biological target: T2, DWVAQ (5-mer on peptide array)
T2 chain: DWVAQ

[3] = biological target: T3, EWALQ (5-mer on peptide array)
T3 chain: EWALQ

[4] = biological target: T4, DYFLQ (5-mer on peptide array)
T4 chain: DYFLQ

[5] = biological target: T5, YRQRA (5-mer on peptide array)
T5 chain: YRQRA

[6] = biological target: T6, EYVAQ (5-mer on peptide array)
T6 chain: EYVAQ

[7] = biological target: T7, WQRQR (5-mer on peptide array)
T7 chain: WQRQR

[8] = biological target: T8, DYALQ (5-mer on peptide array)
T8 chain: DYALQ

[9] = biological target: T9, DWALQ (5-mer on peptide array)
T9 chain: DWALQ

[10] = biological target: T10, RQRQR (5-mer on peptide array)
T10 chain: RQRQR

[11] = biological target: T11, EYWLQ (5-mer on peptide array)
T11 chain: EYWLQ

[12] = biological target: T12, RYRQR (5-mer on peptide array)
T12 chain: RYRQR

[13] = biological target: T13, VRQRQ (5-mer on peptide array)
T13 chain: VRQRQ

[14] = biological target: T14, FRQRG (5-mer on peptide array)
T14 chain: FRQRG

[15] = biological target: T15, FRQRQ (5-mer on peptide array)
T15 chain: FRQRQ

[16] = biological target: T16, DYWLQ (5-mer on peptide array)
T16 chain: DYWLQ

Z-[GGGYRYRQGGGG] = biological target: T17, Z-[GGGYRYRQGGGG]
T17 chain: GGGYRYRQGGGG

[17] = biological target: T18, LRYRQ (5-mer on peptide array)
T18 chain: LRYRQ

[18] = biological target: T19, WYALQ (5-mer on peptide array)
T19 chain: WYALQ

[19] = biological target: T20, DWYLQ (5-mer on peptide array)
T20 chain: DWYLQ

Z-[GGGDYALQGGGG] = biological target: T21, Z-[GGGDYALQGGGG]
T21 chain: GGGDYALQGGGG

[20] = biological target: T22, EWIAQ (5-mer on peptide array)
T22 chain: EWIAQ

[21] = biological target: T23, RYSQR (5-mer on peptide array)
T23 chain: RYSQR

[22] = biological target: T24, YKYRQ (5-mer on peptide array)
T24 chain: YKYRQ

[23] = biological target: T25, RYTQR (5-mer on peptide array)
T25 chain: RYTQR

[24] = biological target: T26, EWVAQ (5-mer on peptide array)
T26 chain: EWVAQ

[25] = biological target: T27, EYALQ (5-mer on peptide array)
T27 chain: EYALQ

[26] = biological target: T28, PRYRQ (5-mer on peptide array)
T28 chain: PRYRQ

[27] = biological target: T29, YRQSR (5-mer on peptide array)
T29 chain: YRQSR

[28] = biological target: T30, RFSQR (5-mer on peptide array)
T30 chain: RFSQR

[29] = biological target: T31, YRYRQ (5-mer on peptide array)
T31 chain: YRYRQ

[30] = biological target: T32, YQRQR (5-mer on peptide array)
T32 chain: YQRQR

[31] = biological target: T33, QRQTR (5-mer on peptide array)
T33 chain: QRQTR

[32] = biological target: T34, VRYRQ (5-mer on peptide array)
T34 chain: VRYRQ

[33] = biological target: T35, EYVLQ (5-mer on peptide array)
T35 chain: EYVLQ

[34] = biological target: T36, DYVAQ (5-mer on peptide array)
T36 chain: DYVAQ

[35] = biological target: T37, AYRQR (5-mer on peptide array)
T37 chain: AYRQR

[36] = biological target: T38, YRQTR (5-mer on peptide array)
T38 chain: YRQTR

[37] = biological target: T39, QYRQR (5-mer on peptide array)
T39 chain: QYRQR

[38] = biological target: T40, QRQRQ (5-mer on peptide array)
T40 chain: QRQRQ

B1: Streptomyces mobaraensis microbial transglutaminase (protein)
chain: DSDDRVTPPAEPLDRMPDPYRPSYGRAETVVNNYIRKWQQVYSHRDGRKQQMTEEQREWLSYGCVGVTWVNSGQYPTNRLAFASFDEDRFKNELKNGRPRSGETRAEFEGRVAKESFDEEKGFQRAREVASVMNRALENAHDESAYLDNLKKELANGNDALRNEDARSPFYSALRNTPSFKERNGGNHDPSRMKAVIYSKHFWSGQDRSSSADKRKYGDPDAFRPAPGTGLVDMSRDRNIPRSPTSPGEGFVNFDYGWFGAQTEADADKTVWTHGNHYHAPNGSLGAMHVYESKFRNWSEGYSDFDRGAYVITFIPKSWNTAPDKVKQGWP
- 5-mer peptide array, incorporation of N-(biotinyl)cadaverine [1]: The 16 glutamine-donor substrates identified with MTG
- 5-mer peptide array, incorporation of N-(biotinyl)cadaverine [2]: The 16 glutamine-donor substrates identified with MTG
- 5-mer peptide array, incorporation of N-(biotinyl)cadaverine [3]: The 16 glutamine-donor substrates identified with MTG
- 5-mer peptide array, incorporation of N-(biotinyl)cadaverine [4]: The 16 glutamine-donor substrates identified with MTG
- 5-mer peptide array signal with MTG [5]: found in the mid-field of the signal distribution on the array performed with MTG
- 5-mer peptide array, incorporation of N-(biotinyl)cadaverine [6]: The 16 glutamine-donor substrates identified with MTG
- 5-mer peptide array signal with MTG [7]: found in the mid-field of the signal distribution on the array performed with MTG
- 5-mer peptide array, incorporation of N-(biotinyl)cadaverine [8]: The 16 glutamine-donor substrates identified with MTG
- 5-mer peptide array, incorporation of N-(biotinyl)cadaverine [9]: The 16 glutamine-donor substrates identified with MTG
- 5-mer peptide array signal with MTG [10]: found in the mid-field of the signal distribution on the array performed with MTG
- 5-mer peptide array, incorporation of N-(biotinyl)cadaverine [11]: The 16 glutamine-donor substrates identified with MTG
- 5-mer peptide array signal with MTG [12]: found in the mid-field of the signal distribution on the array performed with MTG
- 5-mer peptide array signal with MTG [13]: found in the mid-field of the signal distribution on the array performed with MTG
- 5-mer peptide array signal with MTG [14]: found in the mid-field of the signal distribution on the array performed with MTG
- 5-mer peptide array signal with MTG [15]: found in the mid-field of the signal distribution on the array performed with MTG
- 5-mer peptide array, incorporation of N-(biotinyl)cadaverine [16]: The 16 glutamine-donor substrates identified with MTG
- KM (Z-[GGGYRYRQGGGG]): 644 µM
- Vmax (Z-[GGGYRYRQGGGG]): 21.5 pmol/s
- kcat (Z-[GGGYRYRQGGGG]): 0.93 s⁻¹
- kcat/KM (Z-[GGGYRYRQGGGG]): 1440 M⁻¹ s⁻¹
- 5-mer peptide array signal with MTG [17]: found in the mid-field of the signal distribution on the array performed with MTG
- 5-mer peptide array, incorporation of N-(biotinyl)cadaverine [18]: The 16 glutamine-donor substrates identified with MTG
- 5-mer peptide array, incorporation of N-(biotinyl)cadaverine [19]: The 16 glutamine-donor substrates identified with MTG
- KM (Z-[GGGDYALQGGGG]): 847 µM
- Vmax (Z-[GGGDYALQGGGG]): 36.7 pmol/s
- kcat (Z-[GGGDYALQGGGG]): 1.39 s⁻¹
- kcat/KM (Z-[GGGDYALQGGGG]): 1640 M⁻¹ s⁻¹
- 5-mer peptide array, incorporation of N-(biotinyl)cadaverine [20]: The 16 glutamine-donor substrates identified with MTG
- 5-mer peptide array signal with MTG [21]: found in the mid-field of the signal distribution on the array performed with MTG
- 5-mer peptide array signal with MTG [22]: found in the mid-field of the signal distribution on the array performed with MTG
- 5-mer peptide array signal with MTG [23]: found in the mid-field of the signal distribution on the array performed with MTG
- 5-mer peptide array, incorporation of N-(biotinyl)cadaverine [24]: The 16 glutamine-donor substrates identified with MTG
- 5-mer peptide array, incorporation of N-(biotinyl)cadaverine [25]: The 16 glutamine-donor substrates identified with MTG
- 5-mer peptide array signal with MTG [26]: found in the mid-field of the signal distribution on the array performed with MTG
- 5-mer peptide array signal with MTG [27]: found in the mid-field of the signal distribution on the array performed with MTG
- 5-mer peptide array signal with MTG [28]: found in the mid-field of the signal distribution on the array performed with MTG
- 5-mer peptide array signal with MTG [29]: found in the mid-field of the signal distribution on the array performed with MTG
- 5-mer peptide array signal with MTG [30]: found in the mid-field of the signal distribution on the array performed with MTG
- 5-mer peptide array signal with MTG [31]: found in the mid-field of the signal distribution on the array performed with MTG
- 5-mer peptide array signal with MTG [32]: found in the mid-field of the signal distribution on the array performed with MTG
- 5-mer peptide array, incorporation of N-(biotinyl)cadaverine [33]: The 16 glutamine-donor substrates identified with MTG
- 5-mer peptide array, incorporation of N-(biotinyl)cadaverine [34]: The 16 glutamine-donor substrates identified with MTG
- 5-mer peptide array signal with MTG [35]: found in the mid-field of the signal distribution on the array performed with MTG
- 5-mer peptide array signal with MTG [36]: found in the mid-field of the signal distribution on the array performed with MTG
- 5-mer peptide array signal with MTG [37]: found in the mid-field of the signal distribution on the array performed with MTG
- 5-mer peptide array signal with MTG [38]: found in the mid-field of the signal distribution on the array performed with MTG

Reference: patent US20200249231
